# Assay results: article PMC7295242
# Columns and labels:
# [1] = system: CCHFV nucleoprotein (NP) (Crimean-Congo hemorrhagic fever orthonairovirus); test: competition fluorescence anisotropy
# [2] = system: CCHFV nucleoprotein (NP) (Crimean-Congo hemorrhagic fever orthonairovirus); test: fluorescence anisotropy
Substance,IC50 [1] [nM],Kd [2] [nM]
27-mer RNA,197,190
48-mer RNA,167,230
